T1: human PRLR on cells (endogenous on T47D, T47D#11, MCF7); introduced in HEK293/hPRLR/STAT5-Luc, 293/hPRLR, … (human, UniProt P16471 25-622)
T1 construct: no tag is stated for these lines; also called prolactin receptor
T1 sequence: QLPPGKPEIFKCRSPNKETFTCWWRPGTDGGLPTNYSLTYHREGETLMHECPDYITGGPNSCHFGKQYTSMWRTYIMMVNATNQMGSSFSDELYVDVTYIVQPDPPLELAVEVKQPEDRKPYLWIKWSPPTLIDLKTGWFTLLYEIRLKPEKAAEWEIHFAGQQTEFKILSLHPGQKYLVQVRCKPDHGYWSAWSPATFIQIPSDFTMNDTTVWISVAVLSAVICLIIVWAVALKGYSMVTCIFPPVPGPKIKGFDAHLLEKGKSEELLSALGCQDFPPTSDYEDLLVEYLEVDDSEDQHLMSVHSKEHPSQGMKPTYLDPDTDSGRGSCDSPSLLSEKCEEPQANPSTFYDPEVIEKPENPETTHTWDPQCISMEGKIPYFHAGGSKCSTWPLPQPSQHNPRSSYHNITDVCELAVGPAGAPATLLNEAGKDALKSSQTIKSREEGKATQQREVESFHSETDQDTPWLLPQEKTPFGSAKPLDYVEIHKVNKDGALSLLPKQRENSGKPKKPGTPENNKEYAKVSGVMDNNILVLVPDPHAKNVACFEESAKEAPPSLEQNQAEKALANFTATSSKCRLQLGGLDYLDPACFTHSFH

T2: mfPRLR.mmh (soluble monomeric macaca fascicularis PRLR) (macaca fascicularis)
T2 construct: soluble monomeric PRLR protein; also called macaca fascicularis (mf) PRLR.mmh; monkey PRLR
T2 chain: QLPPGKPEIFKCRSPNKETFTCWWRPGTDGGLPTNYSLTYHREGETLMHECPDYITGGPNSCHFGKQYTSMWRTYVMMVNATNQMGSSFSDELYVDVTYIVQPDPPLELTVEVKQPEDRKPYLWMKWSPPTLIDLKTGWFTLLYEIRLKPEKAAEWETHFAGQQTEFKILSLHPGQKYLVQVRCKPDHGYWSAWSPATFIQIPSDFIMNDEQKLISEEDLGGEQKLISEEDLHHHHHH

T3: hPRLR.mFc (soluble dimeric human PRLR) (human)
T3 construct: dimeric PRLR construct
T3 chain: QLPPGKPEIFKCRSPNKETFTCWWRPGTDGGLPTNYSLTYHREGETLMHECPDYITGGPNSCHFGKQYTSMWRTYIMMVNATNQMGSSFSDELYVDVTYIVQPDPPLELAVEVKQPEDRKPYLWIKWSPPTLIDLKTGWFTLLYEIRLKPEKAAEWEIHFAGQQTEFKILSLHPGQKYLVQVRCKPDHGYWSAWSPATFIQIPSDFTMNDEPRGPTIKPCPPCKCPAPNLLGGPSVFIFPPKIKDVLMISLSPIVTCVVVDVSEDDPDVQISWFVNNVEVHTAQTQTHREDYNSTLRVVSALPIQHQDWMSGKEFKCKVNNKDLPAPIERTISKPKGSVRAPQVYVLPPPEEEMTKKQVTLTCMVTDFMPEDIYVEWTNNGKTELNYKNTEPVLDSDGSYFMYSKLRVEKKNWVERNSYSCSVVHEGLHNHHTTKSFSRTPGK

T4: human PRLR construct with an HA tag on HEK293/hPRLR cells (human, UniProt P16471 25-622)
T4 sequence: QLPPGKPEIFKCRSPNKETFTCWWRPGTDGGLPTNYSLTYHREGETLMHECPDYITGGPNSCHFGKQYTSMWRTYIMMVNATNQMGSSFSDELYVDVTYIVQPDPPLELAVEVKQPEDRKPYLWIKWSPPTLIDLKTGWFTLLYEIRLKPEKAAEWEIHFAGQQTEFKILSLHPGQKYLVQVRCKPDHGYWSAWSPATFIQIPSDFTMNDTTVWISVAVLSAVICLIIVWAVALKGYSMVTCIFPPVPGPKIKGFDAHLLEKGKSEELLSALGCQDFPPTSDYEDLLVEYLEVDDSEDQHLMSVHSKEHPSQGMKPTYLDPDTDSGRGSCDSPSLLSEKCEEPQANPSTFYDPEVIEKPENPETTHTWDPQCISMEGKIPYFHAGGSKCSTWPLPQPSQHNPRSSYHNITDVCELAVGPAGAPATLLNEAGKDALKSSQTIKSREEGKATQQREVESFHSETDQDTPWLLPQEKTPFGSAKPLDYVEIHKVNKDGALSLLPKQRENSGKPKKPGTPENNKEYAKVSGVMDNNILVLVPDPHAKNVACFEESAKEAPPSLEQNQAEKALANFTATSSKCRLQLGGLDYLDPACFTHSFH


Columns and labels:
[1] = molecular target: T1, human PRLR on cells (endogenous on …); assay: imaging of alexa488 intensity on T47D cells
Procedure, shortened: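 T47D cells labelled on ice with alexa488 anti-hFc Fab secondary for 30 min, then held 1 h at 37 °C in PBS+2% FBS or at 4 °C. After fixation and DRAQ5 staining, whole-cell (binding) and intracellular-vesicle (internalization) alexa488 intensities at 37 °C quantified by imaging.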

[2] = molecular target: T2, mfPRLR.mmh (soluble monomeric macaca …); assay: SPR (Biacore), antibody capture, 37 C
Description: (§1) Measurements were conducted on a T200 Biacore instrument. Kinetic association (kₐ) and dissociation (kd) rate constants were determined by processing and fitting the data to a 1:1 binding model using Scrubber 2.0 curve fitting software.

[3] = molecular target: T3, hPRLR.mFc (soluble dimeric human PRLR); assay: SPR (Biacore), antibody capture, 37 C
Description: as §1

[4] = molecular target: T4, human PRLR construct with an HA tag on …; assay: FACS on HEK293/hPRLR cells

Binder | % Total Binding relative to Control I [1] [%] | Kd [2] [nM] | T 1/2 [2] [min] | koff [2] [s⁻¹] | kon [2] [M⁻¹ s⁻¹] | Kd [3] [nM] | T 1/2 [3] [min] | koff [3] [s⁻¹] | kon [3] [M⁻¹ s⁻¹] | FACS Cell Binding (Fold Above Background) [4] [fold]
H1H6959N2 (antibody, human IgG1, V domains shown, also called H2M6959N2) VH: EVQLVESGGGLVQPGRSLRLSCAASGFTFDDYAMHWVRQAPGKGLEWVSGISWHSGIIGYADSVKGRFTISRDNAKNSLYLQMNSLRTEDAALYYCAKIGSYFYFDSWGQGTLVTVSS VL: EIVLTQSPGTLSLSPGERATLSCRASQSVSSNYLAWYQQKPGQAPRLLIYGASSRATGIPDRFSGSGSGTDFTLTISRLEPEDFAVYYCQQFGSSGYTFGQGTNLEIK | 2 | 370 | 0.7 | 0.0165 | 44600 | 4.51 | 5 | 0.0023 | 509000 | 6
H1H6960N (antibody, human IgG1, V domains shown, also called H2M6960N) VH: EVQLVESGGGLVKPGGSLRLSCAASGITFSSYSMNWVRQAPGKGLEWVSSISTRSSLIHYADSVKGRFTISRDNAKNSLYLQMNSLRDEDTAVYYCARWDAAAAFDYWGQGTLVIVSS VL: DIQLTQSPSFLSASVGDRVTITCWASQGISSYLAWYQQKPGKAPKLLIYVASTLQSGVPSRFSGSGSGTEFTLTISSLQPEDFATYFCQQLNSYPLTFGGGTKVEIK | 89.7 | 14.9 | 9 | 0.00128 | 86400 | 0.5 | 78.7 | 0.000147 | 294000 | 29

Now from value to binder:

% Total Binding relative to Control I [1] [%] | Kd [2] [nM] | T 1/2 [2] [min] | koff [2] [s⁻¹] | kon [2] [M⁻¹ s⁻¹] | Kd [3] [nM] | T 1/2 [3] [min] | koff [3] [s⁻¹] | kon [3] [M⁻¹ s⁻¹] | FACS Cell Binding (Fold Above Background) [4] [fold] | Binder
111 | 0.982 | 9.6 | 0.0012 | 1.22e+06 | 0.0672 | 91.3 | 0.000127 | 1.88e+06 | 29 | H1H6966N (antibody, human IgG1, V domains shown, also called H2M6966N) VH: QVQLVQSGAEVQKPGASVKVSCKVSGYTLTALSIHWVRQAPGKGLEWMGNFDPGDGETIHAQKFQGRVTMTGDTSTDTAYMELSSLRSEDTAVYYCVGVTFDYWGQGTLVTVSS VL: EIVMTQSPATLSVSPGERATLSCRASQSVASNLAWYQQKPGQAPRLLLYGASTRATGIPARFSGSGSGTEFTLTISSLQSEDFALYYCQHYNNWPLTFGGGTKVEIK
150 | 9.35 | 3 | 0.00426 | 455000 | 0.369 | 56 | 0.000205 | 554000 | 1 | H1H6804P (antibody, human IgG1, V domains shown, human IgG1 Fc (H1H)) VH: QVTLKESGPVLVKPTQTLSLTCTVSGFSLSDAGMGVSWIRQPPGKALEWLAHIFSNDGKSYSTSLKSRLTISKDTSKRQVVLTMTNMDPVDTATYYCARIRTGTYSLYLDYWGQGTLVTVSS VL: DIQMTQSPSSLSASVGDRVTITCRASQSINSYLNWYQQKPGKAPKLLLYFASSLQSGVPSRFSGSGSGTDFTLTISSLQPEDFASYYCQESYSTPWTFGQGTKVEIK

From US20180185504A1 (Regeneron, published 2018)
